Common to all, as to assay: SPR, AAV on CM5 chip;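 also: surface plasmon resonance with AAV amine-coupled to the chip as ligand, nanobodies injected as analyte over a concentration series, rate constants and affinity fitted from binding curves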
In general terms: Surface plasmon resonance follows binding to a sensor surface in real time, without labels.

One assay deals with T1, AAV8.
T1 construct: also called adeno-associated virus serotype 8

The next assay concerns the target T2, AAV5.
T2 construct: also called adeno-associated virus serotype 5

The target of a further assay is T3, AAV9.
T3 construct: also called adeno-associated virus serotype 9

Numbering of substitutions follows the chain as printed.

The term Kd denotes the equilibrium constant for the complex coming apart. As usually defined, the koff is a measure of how fast the partners let go of each other. In general, kon refers to the second-order rate constant of association.

Method for AAV5: (§1) AAV was amine-coupled to a CM5 sensor chip at a density of 500-800 response units (RU). Nanobodies were injected at seven concentrations (1-100 nM) with a flow rate of 45 μL/min, and chip regeneration was performed using glycine-HCl (pH 1.5). Binding curves at different nanobody concentrations were used to calculate kinetic parameters (Kₐ, Kd, KD) (Table 2 and FIG. 2).
Method for AAV8: as §1
Method for AAV9: as §1

B1: A4-018 (VHH)
VHH: VQLQESGGGLVQAGGSLRLSCAASGSRFSINTMGWYRQAPGKQREFVATVTRGGNTNYAESVKGRFTISRDNAKNTVYLQMNSLRPEDTAVYYCHVDEVRDSSWTTSNIWGQGTQVTVSS
B1: in the assay with AAV8, binding was put at a Kd of 34.9 nM, the koff stood at 0.00392 s⁻¹ and the kon is 112000 M⁻¹ s⁻¹. In the assay with AAV5, this molecule came in with a Kd of 0.962 nM, a koff of 0.00014 s⁻¹ and a kon of 146000 M⁻¹ s⁻¹. Besides, in the assay with AAV9, the Kd was 62.1 nM, the koff was found to be 0.00745 s⁻¹ and the kon was 120000 M⁻¹ s⁻¹.

B2: A4-023 (VHH)
VHH: VQLQESGGGLVQPGGSLRLSCAASGSAFSINTMGWYRQAPGKQRELVASVTPGGSTNYADSVKGRFTISRDNAKNTIYLQMNSLRPEDTAVYYCHLDEVRESSWTTSNLWGQGTQVTVSS
With B2, in the assay with AAV8, the Kd stood at 143 nM, the off-rate (koff) is 0.00125 s⁻¹ and the kon amounted to 8730 M⁻¹ s⁻¹. Also, in the assay with AAV5, the Kd is 12.4 nM, the koff turned out to be 0.00126 s⁻¹ and the kon is 102000 M⁻¹ s⁻¹. Moreover, in the assay with AAV9, binding was characterised by a dissociation constant (Kd) of 2.88 nM, the koff is 0.00056 s⁻¹ and the kon was 195000 M⁻¹ s⁻¹.

B3: A4-036 (VHH)
VHH: B1 VHH with V11A, S26R, R27G, F46L, T49A, N55T, E60D, D101Q, I109L
Turning to B3, in the assay with AAV8, binding was put at a Kd of 336 nM, the koff amounted to 0.00225 s⁻¹ and the kon stood at 6700 M⁻¹ s⁻¹. In addition, in the assay with AAV5, the Kd stood at 810 nM, the koff was determined as 0.00621 s⁻¹ and the kon turned out to be 7670 M⁻¹ s⁻¹. In the assay with AAV9, this molecule had a Kd of 1620 nM, a koff of 0.00944 s⁻¹ and a kon of 5810 M⁻¹ s⁻¹.

B4: A4-040 (VHH)
VHH: B2 VHH with S26R, A27I, S49T, P52R, I77V, L96V, V99I, E101Q
As for B4, the Kd in the assay with AAV8 turned out to be 1.71 nM; in the assay with AAV5 it was 3.04 nM; with AAV9, 2.19 nM. Further, the koff was 0.00028 s⁻¹ with AAV8, 0.00022 s⁻¹ in the assay with AAV5 and 0.00022 s⁻¹ in the assay with AAV9. In addition, the values for the kon in the assay with AAV8, with AAV5 and with AAV9 were 164000 M⁻¹ s⁻¹, 72300 M⁻¹ s⁻¹ and 101000 M⁻¹ s⁻¹, respectively.

B5: A4-033 (VHH)
VHH: B1 VHH with A13P, A22V, R27S, Q38R, F46L, G53D, N55S, E60N, D101Q, I109L
In the assay with AAV8, B5 gave a Kd of 89.2 nM, a koff of 0.00034 s⁻¹ and a kon of 3810 M⁻¹ s⁻¹. Further, in the assay with AAV5, the Kd worked out at 243 nM, the koff was 0.002 s⁻¹ and the association rate constant (kon) is 8220 M⁻¹ s⁻¹. Further, in the assay with AAV9, the Kd worked out at 199 nM, the koff came out at 0.00045 s⁻¹ and the kon is 2270 M⁻¹ s⁻¹.

B6: A4-028 (VHH)
VHH: B2 VHH with A27N, S49T, P52R, S55D, I77V, L96V, V99I
Turning to B6, the Kd with AAV8 stood at 6.34 nM; in the assay with AAV5, 26.4 nM; with AAV9 it was 1.09 nM. Besides, the koff with AAV8 was 0.00084 s⁻¹; in the assay with AAV5, 0.00162 s⁻¹; in the assay with AAV9, 9e-05 s⁻¹. Besides, the results for the kon with AAV8, with AAV5 and in the assay with AAV9 were 133000 M⁻¹ s⁻¹, 61300 M⁻¹ s⁻¹ and 82400 M⁻¹ s⁻¹, respectively.

B7: A4-037 (VHH)
VHH: B1 VHH with A13P, R27I, F46L, N55S, E60G, V96L, D101Q
In the assay with AAV8, B7 registered a Kd of 11.6 nM, a koff of 0.0015 s⁻¹ and a kon of 129000 M⁻¹ s⁻¹. In the assay with AAV5, this molecule had a Kd of 0.88 nM, a koff of 0.00012 s⁻¹ and a kon of 136000 M⁻¹ s⁻¹. In the assay with AAV9, binding was put at a Kd of 4.07 nM, the koff worked out at 0.0004 s⁻¹ and the kon worked out at 98300 M⁻¹ s⁻¹.

B8: A4-022 (VHH)
VHH: B2 VHH with A27G, S49T, P52R, G53D, S61F, I77V
For the molecule B8, the Kd amounted to 1.19 nM in the assay with AAV8, 9.61 nM with AAV5 and 28.5 nM with AAV9. Further, the koff with AAV8 is 6.2e-05 s⁻¹; with AAV5, 0.00152 s⁻¹; with AAV9 it was 0.0001 s⁻¹. Besides, the kon is 52100 M⁻¹ s⁻¹ with AAV8, 158000 M⁻¹ s⁻¹ in the assay with AAV5 and 3510 M⁻¹ s⁻¹ with AAV9.

B9: A4-035 (VHH)
VHH: B1 VHH with S26R, R27G, F46L, T49A, N55T, E60D, D101Q, I109L
In the assay with AAV8, B9 showed a Kd of 1.31 nM, a dissociation rate constant (koff) of 0.00017 s⁻¹ and a kon of 130000 M⁻¹ s⁻¹. In the assay with AAV5, this molecule came in with a Kd of 2.52 nM, a koff of 0.0005 s⁻¹ and a kon of 199000 M⁻¹ s⁻¹. In the assay with AAV9, this molecule yielded a dissociation constant Kd of 1.73 nM, a koff of 0.0001 s⁻¹ and a kon of 57800 M⁻¹ s⁻¹.

B10: A4-045 (VHH)
VHH: B2 VHH with A27S, S49A, P52R, S55V, I77V, L96V, E101Q
Take B10: the Kd worked out at 1.07 nM in the assay with AAV8, 41.3 nM in the assay with AAV5 and 37.6 nM with AAV9. Moreover, the values for the koff with AAV8, with AAV5 and in the assay with AAV9 were 1e-05 s⁻¹, 0.00037 s⁻¹ and 0.00027 s⁻¹, respectively. Also, the kon with AAV8 stood at 9390 M⁻¹ s⁻¹; in the assay with AAV5, 8950 M⁻¹ s⁻¹; in the assay with AAV9, 7190 M⁻¹ s⁻¹.

B11: A4-020 (VHH)
VHH: B1 VHH with R27T, F46L, V50I, E60D, D101Q, I109L
In the assay with AAV8, B11 gave a Kd of 0.506 nM, a koff of 5.66e-05 s⁻¹ and a kon of 112000 M⁻¹ s⁻¹. Moreover, in the assay with AAV5, the Kd was found to be 169 nM, the off-rate constant (koff) was found to be 0.00094 s⁻¹ and the on-rate constant (kon) stood at 5550 M⁻¹ s⁻¹. For the same molecule, in the assay with AAV9, the Kd came out at 73.7 nM, the koff worked out at 0.00169 s⁻¹ and the kon was determined as 23000 M⁻¹ s⁻¹.

B12: A4-029 (VHH)
VHH: B2 VHH with A27N, A39R, P40A, S49T, P52R, I77V, L96I, V99I
B12: in the assay with AAV8, the Kd was found to be 0.486 nM, the koff amounted to 4e-05 s⁻¹ and the kon is 82300 M⁻¹ s⁻¹. In the assay with AAV5, the Kd is 92.8 nM, the koff was 0.00155 s⁻¹ and the kon worked out at 16700 M⁻¹ s⁻¹. For the same molecule, in the assay with AAV9, binding was characterised by a dissociation constant (Kd) of 14.6 nM, the koff was 0.00141 s⁻¹ and the kon was determined as 96900 M⁻¹ s⁻¹.

B13: A4-027 (VHH)
VHH: B2 VHH with A27N, S49A, V50L, P52R, I77V, L96V
As to B13, in the assay with AAV8, binding was put at a Kd of 105 nM, the koff amounted to 0.00085 s⁻¹ and the kon came out at 8100 M⁻¹ s⁻¹. Also, in the assay with AAV5, the Kd was 236 nM, the koff was 0.00194 s⁻¹ and the on-rate constant (kon) was found to be 8220 M⁻¹ s⁻¹. In the assay with AAV9, this molecule gave a Kd of 208 nM, a koff of 0.00085 s⁻¹ and a kon of 4090 M⁻¹ s⁻¹.

B14: A4-030 (VHH)
VHH: B2 VHH with A27S, S29T, S49A, P52R, D60G, L96V, V99I, E101Q
In the case of B14, in the assay with AAV8, the Kd was 43.7 nM, the koff amounted to 0.00034 s⁻¹ and the kon was 7780 M⁻¹ s⁻¹. Also, in the assay with AAV5, binding was put at a Kd of 84.4 nM, the koff is 0.00028 s⁻¹ and the on-rate (kon) came to 3320 M⁻¹ s⁻¹. In the assay with AAV9, this molecule displayed a Kd of 27.2 nM, a koff of 0.00025 s⁻¹ and a kon of 9200 M⁻¹ s⁻¹.

B15: A4-041 (VHH)
VHH: B1 VHH with A13P, S26R, R27G, F46L, N55S, E60N, V99L, D101Q, I109L
In the assay with AAV8, B15 had a Kd of 1980 nM, a koff of 0.00245 s⁻¹ and a kon of 1240 M⁻¹ s⁻¹. In the assay with AAV5, this molecule came in with a Kd of 45.9 nM, a koff of 0.00616 s⁻¹ and a kon of 134000 M⁻¹ s⁻¹. In the assay with AAV9, this molecule yielded a Kd of 8.15 nM, a koff of 0.00142 s⁻¹ and a kon of 174000 M⁻¹ s⁻¹.

B16: A4-043 (VHH)
VHH: B2 VHH with S26R, S49T, P52R, G53D, D60G, I77V, L96V, E101Q
With B16, in the assay with AAV8, the Kd stood at 5.45 nM, the koff turned out to be 0.00104 s⁻¹ and the kon is 191000 M⁻¹ s⁻¹. Also, in the assay with AAV5, the Kd came out at 7.73 nM, the koff is 0.00028 s⁻¹ and the kon turned out to be 36200 M⁻¹ s⁻¹. In the assay with AAV9, this molecule yielded a Kd of 0.278 nM, a koff of 4e-05 s⁻¹ and a kon of 144000 M⁻¹ s⁻¹.

B17: A4-019 (VHH)
VHH: B1 VHH with R27T, F46L, V50I, N55S, E60D, D101Q
In the assay with AAV8, B17 returned a Kd of 6.84 nM, a koff of 0.00077 s⁻¹ and a kon of 113000 M⁻¹ s⁻¹. Also, in the assay with AAV5, the Kd stood at 48.9 nM, the koff was 0.00156 s⁻¹ and the kon was 31900 M⁻¹ s⁻¹. Also, in the assay with AAV9, the Kd was found to be 451 nM, the koff came out at 0.00525 s⁻¹ and the kon amounted to 11700 M⁻¹ s⁻¹.

B18: A4-042 (VHH)
VHH: B2 VHH with S26R, S49T, P52R, G53D, I77V, L96V, E101Q
For the molecule B18, in the assay with AAV8, the Kd is 125 nM, the koff is 0.00042 s⁻¹ and the kon was found to be 3360 M⁻¹ s⁻¹. In the assay with AAV5, this molecule showed a Kd of 152 nM, a koff of 0.00118 s⁻¹ and a kon of 7760 M⁻¹ s⁻¹. In the assay with AAV9, binding was put at a Kd of 308 nM, the koff was 0.00144 s⁻¹ and the kon stood at 4680 M⁻¹ s⁻¹.

B19: A4-026 (VHH)
VHH: B2 VHH with A27N, S29R, S49P, P52R, I77V, L96V
In the assay with AAV8, B19 had a Kd of 27.2 nM, a koff of 0.00184 s⁻¹ and a kon of 67700 M⁻¹ s⁻¹. In the assay with AAV5, this molecule gave a Kd of 37.4 nM, a koff of 0.00625 s⁻¹ and a kon of 167000 M⁻¹ s⁻¹. In the assay with AAV9, this molecule came in with a Kd of 31 nM, a koff of 0.00253 s⁻¹ and an on-rate constant (kon) of 81600 M⁻¹ s⁻¹.

B20: A4-031 (VHH)
VHH: B2 VHH with A27G, S49T, P52S, G53A, D60G, I77V, L96V, V99I, E101Q
B20: the Kd with AAV8 amounted to 182 nM; with AAV5, 41.9 nM; with AAV9, 2240 nM. For the same molecule, the koff turned out to be 0.00923 s⁻¹ with AAV8, 0.00624 s⁻¹ with AAV5 and 0.00824 s⁻¹ with AAV9. In addition, the kon in the assay with AAV8 turned out to be 50700 M⁻¹ s⁻¹; with AAV5, 149000 M⁻¹ s⁻¹; with AAV9, 3690 M⁻¹ s⁻¹.

B21: A4-025 (VHH)
VHH: B2 VHH with A27N, S29R, S49T, P52R, A73P, N75D, I77V, L96V
Turning to B21, in the assay with AAV8, the Kd turned out to be 2.09 nM, the koff turned out to be 0.00026 s⁻¹ and the kon was 124000 M⁻¹ s⁻¹. For the same molecule, in the assay with AAV5, the Kd is 85.5 nM, the off-rate constant (koff) turned out to be 0.00041 s⁻¹ and the kon amounted to 4800 M⁻¹ s⁻¹. In the assay with AAV9, this molecule came in with a Kd of 0.737 nM, a koff of 0.00012 s⁻¹ and a kon of 163000 M⁻¹ s⁻¹.

Source of the values: patent US20260193326A1 (published 2026).
